Key:
[1] = target: cgCCM1 E5R1 (complex N-linked glycans, spin-labelled) (human) (UniProt P13688); assay: continuous-wave EPR
[2] = target: CCM1 D94R1 (non-glycosylated, spin-labelled) (human) (UniProt P13688); assay: continuous-wave EPR
[3] = target: CCM1 E5R1 (non-glycosylated, spin-labelled) (human) (UniProt P13688); assay: continuous-wave EPR
[4] = target: cgCCM1 Q103R1 (complex N-linked glycans, spin-labelled) (human) (UniProt P13688); assay: continuous-wave EPR
[5] = target: gCCM1 E5R1 (single GlcNAc modifications, spin-labelled) (human) (UniProt P13688); assay: continuous-wave EPR
[6] = target: CCM1 Q103R1 (non-glycosylated, spin-labelled) (human) (UniProt P13688); assay: continuous-wave EPR
[7] = target: gCCM1 Q103R1 (single GlcNAc modifications, spin-labelled) (human) (UniProt P13688); assay: continuous-wave EPR
SEC = target: the molecule itself; assay: SEC

cgCCM1 E5R1 (complex N-linked glycans, spin-labelled) (from UniProt P13688 68-175) (domain or fragment)
stoichiometry N [1]: 2

CCM1 D94R1 (non-glycosylated, spin-labelled) (from UniProt P13688 69-175) (domain or fragment)
stoichiometry N [2]: 2

CCM1 E5R1 (non-glycosylated, spin-labelled) (from UniProt P13688 69-175) (domain or fragment)
stoichiometry N [3]: 2

cgCCM1 Q103R1 (complex N-linked glycans, spin-labelled) (from UniProt P13688 68-175) (domain or fragment)
stoichiometry N [4]: 2

gCCM1 E5R1 (single GlcNAc modifications, spin-labelled) (from UniProt P13688 68-175) (domain or fragment)
stoichiometry N [5]: 2

CCM1 Q103R1 (non-glycosylated, spin-labelled) (from UniProt P13688 69-175) (domain or fragment)
stoichiometry N [6]: 2

gCCM1 Q103R1 (single GlcNAc modifications, spin-labelled) (from UniProt P13688 68-175) (domain or fragment)
stoichiometry N [7]: 2

B1: non-glycosylated CEACAM1 N-terminal Ig-like domain (CCM1) (domain or fragment, human, UniProt P13688 35-141, looked up)
chain: QLTTESMPFNVAEGKEVLLLVHNLPQQLFGYSWYKGERVDGNRQIVGYAIGTQQATPGPANSGRETIYPNASLLIQNVTQNDTGFYTLQVIKSDLVNEEATGQFHVY
stoichiometry N (SEC): 2
